Laboratory results published in US20250145695A1 (AC IMMUNE, published 2025).
“And” between values parts separate entries of the source, which are not always exact repeats. Equal entries are not always repeated.

T1: TP-51 peptide (human)
T1 construct: Synthetic peptide from Pepscan; also called synthetic TDP-43 peptide (TP-51)
T1 peptide: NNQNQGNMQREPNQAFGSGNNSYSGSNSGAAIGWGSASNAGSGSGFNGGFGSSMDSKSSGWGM


What was measured:
soluble TDP-43 = target: T2, soluble TDP-43 (human, UniProt Q13148 1-414); assay: SPR Biacore 8K, soluble TDP-43 immobilized on CM5, mAb injected, single-cycle kinetics
T2 construct: also called soluble full-length TDP-43; FL TDP-43
T2 sequence (Q13148 whole entry): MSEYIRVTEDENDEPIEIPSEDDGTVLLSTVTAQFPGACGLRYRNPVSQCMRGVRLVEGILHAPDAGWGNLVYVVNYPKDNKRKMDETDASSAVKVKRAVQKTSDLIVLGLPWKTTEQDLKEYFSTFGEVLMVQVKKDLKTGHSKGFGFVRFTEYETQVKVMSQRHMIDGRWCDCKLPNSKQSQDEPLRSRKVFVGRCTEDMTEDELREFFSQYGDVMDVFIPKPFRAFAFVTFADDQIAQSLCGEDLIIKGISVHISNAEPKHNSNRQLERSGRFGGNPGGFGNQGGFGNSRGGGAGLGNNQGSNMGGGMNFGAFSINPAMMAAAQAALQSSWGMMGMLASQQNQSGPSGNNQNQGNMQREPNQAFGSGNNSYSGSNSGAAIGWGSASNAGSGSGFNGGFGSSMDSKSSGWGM
Description: The instrument was primed with running buffer PBS-P+ and flow cells (Fc) 1 and 2 of channels 1-8 were activated with a fresh solution of EDC/NHS (Amine Coupling Kit, 1:1 ratio of both reagents, GE Healthcare Life Sciences, BR-1006-33) at 10 μL/min for 420 sec. Soluble TDP-43 (Selvita) was diluted in sodium acetate pH 4.5 to a final concentration of 5 μg/mL and injected for 900 sec with a flow rate of 5 μL/min on Fc 2. All flow cells were quenched with 1 M ethanol amine (GE Healthcare Life Sciences, BR-1006-33), at 10 μL/min for 420 sec. Immobilization levels after ethanolamine quenching were 680 RU on all eight channels. Prior to analysis, two Startup cycles were run. Increasing mAbs concentrations were injected in single-cycle kinetics ranging from 1.2 to 100 nM, prepared from a 3-fold serial dilution in running buffer, with a contact time of 300 sec and a dissociation time of 3600 sec at a flow rate of 30 μL/min. Each cycle was followed by one regeneration using 10 mM Glycine-HCl pH 1.7 with a contact time of 30 sec at 30 μL/min, followed by a stabilization period of 300 sec. Results obtained from single-cycle kinetics were double-referenced using the blank Fc 1 and buffer cycles and evaluated using Biacore 8K evaluation software using the 1:1 kinetic fit model with RI and global Rmax. The following kinetic parameters were obtained: association rate constant (ka), dissociation rate constant (kd), affinity constant (KD) and saturation response (Rmax).

TP-51 peptide = target: T1, TP-51 peptide; assay: SPR Biacore 8K, mAb captured by anti-human antibody, TP-51 injected, single-cycle kinetics
Description: The instrument was primed with running buffer PBS-P+. Fc 1-2 of channels 1-8 (8K) were activated with a fresh solution of EDC/NHS (Amine Coupling Kit, 1:1 ratio of both reagents, GE Healthcare Life Sciences, BR-1006-33) at 10 μL/min for 420 sec and goat anti-human antibody (GE Healthcare Life Sciences, 29234600) was immobilized at 25 μg/mL in 10 mM sodium acetate pH 5 for 420 sec. Next, all Fc were quenched with 1 M ethanol amine (GE Healthcare Life Sciences, BR-1006-33), for 420 sec. Any non-covalently bound antibodies were removed by two regenerations with 10 mM Glycine-HCl pH 1.7 for 30 sec. Immobilization levels were evaluated following ethanolamine quenching (10000 RU for all channels).
Each cycle started with non-covalent capture of humanized variants which were diluted in running buffer to a final concentration of 2 μg/mL and injected for 60 sec with a flow rate of 10 μL/min. TDP-43 mAbs were captured on channels 1-8, leaving Fc 1 as a blank Fc. Capture levels were evaluated following a 120 sec stabilization period after each mAb injection and ranged from 300-500 RU.
TP-51 consists of amino acids 352-414 of TDP-43 (SEQ ID NO: 1). Injections of TP-51 peptide (Pepscan) were performed in single-cycle kinetics with increasing concentrations ranging from 1.2-100 nM prepared from serial 3-fold dilutions. Injections were performed with contact times of 300 sec/injection at a flow rate of 25 μL/min. A dissociation phase of 3600 sec followed the final injection. Sensor surface was regenerated by one injection of 10 mM Glycine-HCl pH 1.7 at a flow rate of 10 μL/min for 120 sec, followed by a stabilization period of 300 sec. Results obtained from single-cycle kinetics were double-referenced using the blank Fc 1 and buffer cycles and evaluated by Biacore 8K evaluation software with 1:1 kinetic fit model with RI and global Rmax. The following kinetic parameters were obtained: association rate constant (ka), dissociation rate constant (kd), affinity constant (KD) and saturation response (Rmax).

[1] = target: T3, human TDP-43 in CSF of a healthy donor (human, UniProt Q13148 1-414, limits assumed); assay: SIMOA-based target engagement assay, unbound TDP-43 in human CSF pre-incubated with increasing antibody
T3 construct: also called TDP-43 in human CSF

| Binder | Kd (soluble TDP-43) | koff (soluble TDP-43) | kon (soluble TDP-43) | Kd (TP-51 peptide) | koff (TP-51 peptide) | kon (TP-51 peptide) | EC50 [1] |
| --- | --- | --- | --- | --- | --- | --- | --- |
| ACI-7069-633B12-Ab1 (antibody, V domains shown, also called murine parental antibody) VH: EVQLQQSGPELVKPGASVKISCKTSGFTFTEYSMHWVKQSHGKSLEWIGGINPNNGGTSYNQKFKGKATLTVDKSSSTAYMELRSLTSEDSAVYYCARESWGQGTTLTVSS VL: not shown | 328 pM | 1.7e-05 s⁻¹ | 55000 M⁻¹ s⁻¹ | 1500 pM | 9.8e-05 s⁻¹ | 67000 M⁻¹ s⁻¹ | – |
| hACI-7069-633B12-Ab1_H33L24 (antibody, V domains shown) VH: EVQLVQSGAEVKKPGATVKISCKVSGFTFTEYSMHWVQQAPGKGLEWMGGINPNNGGTSYNQKFQGRVTITADTSTDTAYMELSSLRSEDTAVYYCARESWGQGTTVTVSS VL: DIVMTQSPLSLPVTPGEPASISCKSSQSLLHSDGKTYLNWLLQKPGQSPQRLIYLVSKLDSRVPDRFSGSGSGTDFTLKISRVEAEDVGVYYCWQGTHFPHTFGQGTKLEIK | 471 pM | 1.3e-05 s⁻¹ | 30000 M⁻¹ s⁻¹ | 2200 pM | 0.00015 s⁻¹ | 70000 M⁻¹ s⁻¹ | – |
| hACI-7069-633B12-Ab1_H27L23 (antibody, V domains shown) VH: EVQLVQSGAEVKKPGATVKISCKVSGFTFTEYSMHWVQQAPGKGLEWMGGINPNNGGTSYNQKFKGRVTITVDTSTDTAYMELSSLRSEDTAVYYCARESWGQGTTVTVSS VL: DVVMTQSPLSLPVTPGEPASISCKSSQSLLHSDGKTYLNWLLQKPGQSPQRLIYLVSKLDSRVPDRFSGSGSGTDFTLKISRVEAEDVGVYYCWQGTHFPHTFGQGTKLEIK | 925 pM | 2.2e-05 s⁻¹ | 24000 M⁻¹ s⁻¹ | 3300 pM | 0.00014 s⁻¹ | 42000 M⁻¹ s⁻¹ | – |
| hACI-7069-633B12-Ab1_H28L22 (antibody, V domains shown) VH: EVQLVQSGAEVKKPGATVKISCKVSGFTFTEYSMHWVQQAPGKGLEWMGGINPNNGGTSYNQKFKGRVTITADTSTDTAYMELSSLRSEDTAVYYCARESWGQGTTVTVSS VL: DIVMTQSPLSLPVTPGEPASISCKSSQSLLHSDGKTYLNWLLQKPGQSPKRLIYLVSKLDSRVPDRFSGSGSGTDFTLKISRVEAEDVGVYYCWQGTHFPHTFGQGTKLEIK | 1160 pM | 3.4e-05 s⁻¹ | 29000 M⁻¹ s⁻¹ | 3500 pM | 0.0002 s⁻¹ | 58000 M⁻¹ s⁻¹ | – |
| hACI-7069-633B12-Ab1_H28L23 (antibody, V domains shown) VH: EVQLVQSGAEVKKPGATVKISCKVSGFTFTEYSMHWVQQAPGKGLEWMGGINPNNGGTSYNQKFKGRVTITADTSTDTAYMELSSLRSEDTAVYYCARESWGQGTTVTVSS VL: DVVMTQSPLSLPVTPGEPASISCKSSQSLLHSDGKTYLNWLLQKPGQSPQRLIYLVSKLDSRVPDRFSGSGSGTDFTLKISRVEAEDVGVYYCWQGTHFPHTFGQGTKLEIK | 806 pM | 2.6e-05 s⁻¹ | 32000 M⁻¹ s⁻¹ | 1900 pM | 0.00013 s⁻¹ | 65000 M⁻¹ s⁻¹ | – |
| hACI-7069-633B12-Ab1_H28L24 (antibody, V domains shown) VH: EVQLVQSGAEVKKPGATVKISCKVSGFTFTEYSMHWVQQAPGKGLEWMGGINPNNGGTSYNQKFKGRVTITADTSTDTAYMELSSLRSEDTAVYYCARESWGQGTTVTVSS VL: DIVMTQSPLSLPVTPGEPASISCKSSQSLLHSDGKTYLNWLLQKPGQSPQRLIYLVSKLDSRVPDRFSGSGSGTDFTLKISRVEAEDVGVYYCWQGTHFPHTFGQGTKLEIK | 531 pM | 1.7e-05 s⁻¹ | 37000 M⁻¹ s⁻¹ | 2000 pM | 0.00013 s⁻¹ | 66000 M⁻¹ s⁻¹ | – |
| hACI-7069-633B12-Ab1_H32L24 (antibody, V domains shown) VH: EVQLVQSGAEVKKPGATVKISCKVSGFTFTEYSMHWVQQAPGKGLEWMGGINPQNAGTSYNQKFQGRVTITADTSTDTAYMELSSLRSEDTAVYYCARESWGQGTTVTVSS VL: DIVMTQSPLSLPVTPGEPASISCKSSQSLLHSDGKTYLNWLLQKPGQSPQRLIYLVSKLDSRVPDRFSGSGSGTDFTLKISRVEAEDVGVYYCWQGTHFPHTFGQGTKLEIK | 716 pM | 1.5e-05 s⁻¹ | 24000 M⁻¹ s⁻¹ | 2000 pM | 0.00012 s⁻¹ | 64000 M⁻¹ s⁻¹ | – |
| hACI-7069-633B12-Ab1_H32L26 (antibody, V domains shown) VH: EVQLVQSGAEVKKPGATVKISCKVSGFTFTEYSMHWVQQAPGKGLEWMGGINPQNAGTSYNQKFQGRVTITADTSTDTAYMELSSLRSEDTAVYYCARESWGQGTTVTVSS VL: DIVMTQSPLSLPVTPGEPASISCKSSQSLLHSDAKTYLNWLLQKPGQSPQRLIYLVSKLDSRVPDRFSGSGSGTDFTLKISRVEAEDVGVYYCFQGTHFPHTFGQGTKLEIK | 563 pM | 1.7e-05 s⁻¹ | 33000 M⁻¹ s⁻¹ | 1400 pM | 0.00016 s⁻¹ | 120000 M⁻¹ s⁻¹ | – |
| hACI-7069-633B12-Ab1_H32L27 (antibody, V domains shown) VH: EVQLVQSGAEVKKPGATVKISCKVSGFTFTEYSMHWVQQAPGKGLEWMGGINPQNAGTSYNQKFQGRVTITADTSTDTAYMELSSLRSEDTAVYYCARESWGQGTTVTVSS VL: DIVMTQSPLSLPVTPGEPASISCKSSQSLLHSDGKTYLNWLLQKPGQSPQRLIYLVSKLDSRVPDRFSGSGSGTDFTLKISRVEAEDVGVYYCFQGTHFPHTFGQGTKLEIK | 143 pM | 5.2e-06 s⁻¹ | 36000 M⁻¹ s⁻¹ | 1000 pM | 0.00012 s⁻¹ | 120000 M⁻¹ s⁻¹ | – |
| hACI-7069-633B12-Ab1_H33L26 (antibody, V domains shown) VH: EVQLVQSGAEVKKPGATVKISCKVSGFTFTEYSMHWVQQAPGKGLEWMGGINPNNGGTSYNQKFQGRVTITADTSTDTAYMELSSLRSEDTAVYYCARESWGQGTTVTVSS VL: DIVMTQSPLSLPVTPGEPASISCKSSQSLLHSDAKTYLNWLLQKPGQSPQRLIYLVSKLDSRVPDRFSGSGSGTDFTLKISRVEAEDVGVYYCFQGTHFPHTFGQGTKLEIK | 220 pM | 9e-06 s⁻¹ | 43000 M⁻¹ s⁻¹ | 1600 pM | 0.00029 s⁻¹ | 160000 M⁻¹ s⁻¹ | – |
| hACI-7069-633B12-Ab1_H33L27 (antibody, V domains shown) VH: EVQLVQSGAEVKKPGATVKISCKVSGFTFTEYSMHWVQQAPGKGLEWMGGINPNNGGTSYNQKFQGRVTITADTSTDTAYMELSSLRSEDTAVYYCARESWGQGTTVTVSS VL: DIVMTQSPLSLPVTPGEPASISCKSSQSLLHSDGKTYLNWLLQKPGQSPQRLIYLVSKLDSRVPDRFSGSGSGTDFTLKISRVEAEDVGVYYCFQGTHFPHTFGQGTKLEIK | 126 pM | 6.5e-06 s⁻¹ | 52000 M⁻¹ s⁻¹ | 800 pM | 0.00012 s⁻¹ | 150000 M⁻¹ s⁻¹ | 0.0356 µg/mL and 0.237 nM |
